We go through two molecules from paper doi:10.1101/2023.07.14.549122.

Series [1] addresses Crenotalea thermophila SPARTA complex (heterodimer of TIR-APAZ and short pAgo) (Crenotalea thermophila). Put plainly: cryo-EM structure.
The target of series [2] is T1, short pAgo (SPARTA);TIR-APAZ (SPARTA) (Crenotalea thermophila;Crenotalea …, UniProt A0A1I7NFD7;A0A1I7NFG5 1-507;1-450, |).
T1 sequence 1: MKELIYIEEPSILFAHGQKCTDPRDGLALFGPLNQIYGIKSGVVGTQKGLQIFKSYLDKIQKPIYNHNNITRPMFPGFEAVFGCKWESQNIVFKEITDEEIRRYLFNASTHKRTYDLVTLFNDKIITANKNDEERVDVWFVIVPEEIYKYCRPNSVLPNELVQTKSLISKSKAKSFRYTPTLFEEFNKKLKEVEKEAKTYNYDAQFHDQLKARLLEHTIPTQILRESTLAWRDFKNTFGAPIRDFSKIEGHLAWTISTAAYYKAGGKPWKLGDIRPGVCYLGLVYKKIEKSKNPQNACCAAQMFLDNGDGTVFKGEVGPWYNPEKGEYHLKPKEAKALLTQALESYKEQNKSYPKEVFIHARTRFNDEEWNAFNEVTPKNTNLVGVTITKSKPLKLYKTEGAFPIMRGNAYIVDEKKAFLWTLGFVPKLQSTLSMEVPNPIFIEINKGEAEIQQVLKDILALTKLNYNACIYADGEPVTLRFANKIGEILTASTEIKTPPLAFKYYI
T1 sequence 2: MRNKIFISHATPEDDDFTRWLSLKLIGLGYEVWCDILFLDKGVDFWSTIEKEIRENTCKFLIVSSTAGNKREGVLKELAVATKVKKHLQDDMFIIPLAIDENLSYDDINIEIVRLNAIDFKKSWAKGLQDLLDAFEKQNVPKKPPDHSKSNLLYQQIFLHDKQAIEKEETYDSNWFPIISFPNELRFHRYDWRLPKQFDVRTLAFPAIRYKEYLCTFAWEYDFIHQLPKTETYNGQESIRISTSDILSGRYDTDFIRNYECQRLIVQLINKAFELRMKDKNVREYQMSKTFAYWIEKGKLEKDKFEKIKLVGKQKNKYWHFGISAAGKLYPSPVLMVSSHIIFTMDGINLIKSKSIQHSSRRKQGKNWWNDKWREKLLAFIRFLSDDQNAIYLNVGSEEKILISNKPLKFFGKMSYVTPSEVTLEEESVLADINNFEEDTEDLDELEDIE
The series can be described thus: cryoEM structure.

As a reminder, the stoichiometry N is the number of molecules, sites or subunits per partner or assembly. Molecule “Crenotalea thermophila SPARTA complex (heterodimer of TIR-APAZ and short pAgo)” registered a stoichiometry N in series [1] of 4.

B1: gRNA-target ssDNA (25 nt target) (DNA:RNA)
RNA: AAACGGCUCUAAUCUAUUAGU
DNA: CAACTAATAGATTAGAGCCGTTTAT
modifications: 5'-phosphate on gRNA
In the case of B1, the binding result in series [2] is reported as “binds”.
